# Key:
# [1] = target: soluble CD14 DPRQY deletion mutant (residues 59-63 of SEQ ID NO: 1 deleted) (human) (UniProt P08571); assay: ELISA, mutant CD14 coated, biotinylated mAb; grade = OD as % of wild-type CD14 (++ 51-75%)
# [2] = target: soluble CD14 DDED deletion mutant (residues 9-12 of SEQ ID NO: 1 deleted) (human) (UniProt P08571); assay: ELISA, mutant CD14 coated, biotinylated mAb; grade = OD as % of wild-type CD14 (+ 11-50%)
# [3] = target: soluble CD14 PQPD deletion mutant (residues 22-25 of SEQ ID NO: 1 deleted) (human) (UniProt P08571); assay: as above
# [4] = target: soluble CD14 DPRQY deletion mutant (residues 59-63 of SEQ ID NO: 1 deleted) (human) (UniProt P08571); assay: ELISA, mutant CD14 coated, biotinylated mAb; grade = OD as % of wild-type CD14 (++++ >90%)
# [5] = target: soluble CD14 AVEVE deletion mutant (residues 35-39 of SEQ ID NO: 1 deleted) (human) (UniProt P08571); assay: ELISA, mutant CD14 coated, biotinylated mAb; grade = OD as % of wild-type CD14 (++ 51-75%)
# [6] = target: soluble CD14 DDED deletion mutant (residues 9-12 of SEQ ID NO: 1 deleted) (human) (UniProt P08571); assay: ELISA, mutant CD14 coated, biotinylated mAb; grade = OD as % of wild-type CD14 (++++ >90%)
# [7] = target: soluble CD14 DDED/PQPD double deletion mutant (residues 9-12 and 22-25 of SEQ ID NO: 1 deleted) (human) (UniProt P08571); assay: as above
# [8] = target: soluble CD14 PQPD deletion mutant (residues 22-25 of SEQ ID NO: 1 deleted) (human) (UniProt P08571); assay: ELISA, mutant CD14 coated, biotinylated mAb; grade = OD as % of wild-type CD14 (+++ 76-90%)
# [9] = target: soluble CD14 DDED deletion mutant (residues 9-12 of SEQ ID NO: 1 deleted) (human) (UniProt P08571); assay: as above
# [10] = target: soluble CD14 DDED/PQPD double deletion mutant (residues 9-12 and 22-25 of SEQ ID NO: 1 deleted) (human) (UniProt P08571); assay: as above
Substance,OD405 as percent of wild-type CD14 OD [4] [%],OD405 as percent of wild-type CD14 OD [5] [%],OD405 as percent of wild-type CD14 OD [8] [%],other results
anti-CD14 monoclonal antibody MO-2,–,–,–,OD405 as percent of wild-type CD14 OD [1]: 51 to 75%
anti-CD14 monoclonal antibody UCHM-1,> 90,–,–,OD405 as percent of wild-type CD14 OD [2]: 11 to 50%; OD405 as percent of wild-type CD14 OD [3]: 11 to 50%
anti-CD14 monoclonal antibody 63D3,> 90,51 to 75,76 to 90,OD405 as percent of wild-type CD14 OD [6]: > 90%; OD405 as percent of wild-type CD14 OD [7]: > 90%
anti-CD14 monoclonal antibody MY4,> 90,–,–,–
anti-CD14 monoclonal antibody MEM-18,–,51 to 75,76 to 90,OD405 as percent of wild-type CD14 OD [9]: 76 to 90%; OD405 as percent of wild-type CD14 OD [10]: 76 to 90%

# Reference: patent US20030114377A1
